A short description of the series: protein stability index of a GFP-peptide fusion (GPS, HEK-293T) (PSI 1-6); higher = more stable. The note with it: c terminus: a fixed tail appended.

± gives the standard deviation.
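Further: 24-mer peptide tiles fused after GFP, lentivirally expressed, FACS-sorted into six equal bins by GFP/DsRed ratio, decoded by Illumina sequencing, PSI is the read-weighted mean bin number.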

Regarding ISFDRYYKIVKPLWTSFIQSVSYS [P2RY14], the protein stability index reads like this: (treatment: DMSO) 3.63 ± 0.89; (treatment: MLN4924 1 uM, 8 h) 2.08 ± 0.7.
The matching figures for AHRERNEFPEDPEFEAVVRQAELA [PI4K2A]: 5.32 ± 0.12 and 5.36 ± 0.43.
The matching figures for AEEAGLKNNDLVVAVNGESVETLD [PDZK1]: 5.49 ± 0.2 and 5.51 ± 0.26.
Consider RVIMIVTDGRPQDSVAEVAAKARD [MATN2], for which the protein stability index runs as follows: (treatment: DMSO) 3.165 ± 0.024; (treatment: MLN4924 1 uM, 8 h) 2.76 ± 0.6.
On the same counts, the results for PDALSDVGEVPYWVLEPVLEGWRP [ELOA2] are 3.07 ± 0.26 and 3.13 ± 0.54.
The matching figures for GILTFLAVLGRYVPGLLLSYLMLV [RETREG3]: 3.42 ± 0.28 and 2.95 ± 0.72.
On the same counts, the results for AGTAGVGETGSGDQAGGEGKHITV [MYOZ1] are 5.51 ± 0.14 and 5.05 ± 0.71.
In the case of PCPEDASTPRPPEASSSPPEGSQD [TLE6], the protein stability index was 5.52 ± 0.16 (treatment: DMSO) and 5.53 ± 0.17 (treatment: MLN4924 1 uM, 8 h).
On the same counts, the results for SQSSASQPRLSYAEMAEDYPRYPD [CLCN6] are 4.83 ± 0.14 and 4.86 ± 0.13.
With FVSKIRAVINDIANLPVPTIAAID [AUH], the protein stability index turned out to be 2.42 ± 1.6 (treatment: DMSO) and 2.04 ± 0.54 (treatment: MLN4924 1 uM, 8 h).
The matching figures for VVRLLLEHYRVQTQQTGTVRFDGY [FEM1B]: 2.62 ± 0.57 and 2.63 ± 0.58.
On the same counts, the results for GGSSTSERCLLNNSLWKKNKTICK [NLN] are 3.44 ± 0.16 and 3.47 ± 0.33.
On the same counts, the results for GPVQVVLVQKDQHSFELDEKALAS [ATL3] are 3.65 ± 0.18 and 4.06 ± 0.2.
In turn, SENCPKVISCEFAHNSNWYITFQS [LARP4] registered a protein stability index (treatment: DMSO) of 2.21 ± 0.23 and a protein stability index (treatment: MLN4924 1 uM, 8 h) of 2.08 ± 0.27.
The matching figures for KVLQGGEQEIQFEDFTNTLRELGH [PKD2L1]: 3.08 ± 0.35 and 3.31 ± 0.23.
On the same counts, the results for RFTAESYTVLGDTLIDGGEHYWEV [FSD1] are 2.23 ± 0.3 and 2.5 ± 0.43.
On the same counts, the results for VKEDDKLIFHRHPVAQSTDAIRGK [SPSB1] are 4.56 ± 0.25 and 4.69 ± 0.25.
ENTLLNSQMVSTDNSLSSQNYISQ [MIA2]: the protein stability index was found to be 4.05 ± 0.23 (treatment: DMSO) and 4.03 ± 0.17 (treatment: MLN4924 1 uM, 8 h).
The matching figures for AVAFMPEDITKGTQSLPTASASKF [AUP1]: 4.22 ± 0.18 and 4.3 ± 0.16.
For the sequence KNSTMVNSEDIFLLLCLKVDNHFN [TRIM43], the protein stability index was 2.98 ± 0.57 (treatment: DMSO) and 2.84 ± 0.51 (treatment: MLN4924 1 uM, 8 h).
Regarding LPLPLSLAPPPLPLPAAAVVHVSF [ZBTB22], the protein stability index was found to be 2.34 ± 0.3 (treatment: DMSO) and 2.15 ± 0.17 (treatment: MLN4924 1 uM, 8 h).
On the same counts, the results for LTEDYFPSVPDNAELVLLTLGQAW [DFFB] are 2.34 ± 0.23 and 2.34 ± 0.22.
The matching figures for SNSCPAELPNIKREISETEAKALL [TFE3]: 5.1 ± 0.098 and 5.18 ± 0.12.
As to IESLNEELAYMKKNHEEEMKEFSN [KRT13], the protein stability index (treatment: DMSO) stood at 4.88 ± 0.38 and the protein stability index (treatment: MLN4924 1 uM, 8 h) was determined as 5.06 ± 0.3.
On the same counts, the results for AESSVPPVTSIGIDNLGLKLEENL [SLC35F2] are 4.97 ± 0.2 and 5.13 ± 0.13.
On the same counts, the results for DESLCPQHHEALSLFCYEDQEAVC [TRIM39] are 4.7 ± 0.057 and 4.69 ± 0.16.
As to VPVKKQKTRTVFSSTQLCVLNDRF [NANOGP8], the protein stability index stood at 2.57 ± 0.23 (treatment: DMSO) and 2.77 ± 0.32 (treatment: MLN4924 1 uM, 8 h).
Consider ALLALDENFDHNTLALILQIPTQN [PPFIA4], for which the protein stability index worked out at 2.21 ± 0.47 (treatment: DMSO) and 2.17 ± 0.29 (treatment: MLN4924 1 uM, 8 h).
The matching figures for AQNNCPAIMNALIEAGAHMDATNA [FEM1A]: 4.46 ± 0.23 and 4.49 ± 0.079.
On the same counts, the results for IAFDGVVGSGGRRDSTARRPRPQG [RTN2] are 4.29 ± 0.17 and 4.26 ± 0.22.
The matching figures for GIPNAIISVEGINHDIRTANDGDY [CPXM2]: 4.55 ± 0.2 and 4.71 ± 0.16.
As to EAVFGKYGRIVEVLLMKDRETNKS [RBMX], the protein stability index stood at 2.53 ± 0.29 (treatment: DMSO) and 2.85 ± 0.52 (treatment: MLN4924 1 uM, 8 h).
Turning to DDVEMKNGITQGDKLRALKSQRQP [CDC14A], the protein stability index runs as follows: (treatment: DMSO) 4.91 ± 0.25; (treatment: MLN4924 1 uM, 8 h) 5.05 ± 0.25.
On the same counts, the results for AKQIMEETYKMEFMYSGVENKQVV [INTS4] are 2.23 ± 0.31 and 2.65 ± 0.61.
On the same counts, the results for VEGFRITLVDESDLYNWEVAIFGP [UBE2R2] are 2.84 ± 0.79 and 2.52 ± 0.68.
The matching figures for KPPPRKHTRSWAVLKLLLLLLLFG [LRRC59]: 2.09 ± 0.3 and 2.02 ± 0.26.
